This note sets out measurements from PMC9456098, “Crystal Structure of the Recombination Mediator Protein RecO from Campylobacter jejuni and Its Interaction with DNA and a Zinc Ion”.

The test system of series [1] is cjSSB (Campylobacter jejuni (strain ATCC 33291?)). The series can be described thus: fluorescence polarization. The note with it: FP: 20 mM Tris pH 8.0, 30 mM NaCl, 5 mM beta-mercaptoethanol, 0.8 nM fluorescein-ssDNA; temperature not stated; one-site model.
Series [2] has as its target T1, cjRecO (Campylobacter jejuni subsp. jejuni ATCC …, UniProt Q0PC17 1-204).
T1 sequence: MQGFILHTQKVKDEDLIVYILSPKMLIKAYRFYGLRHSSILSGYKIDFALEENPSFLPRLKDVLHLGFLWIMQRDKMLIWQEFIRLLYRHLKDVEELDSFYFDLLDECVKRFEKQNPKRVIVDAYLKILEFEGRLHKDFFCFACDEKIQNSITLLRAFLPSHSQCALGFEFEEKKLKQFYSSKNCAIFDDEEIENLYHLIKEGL
The experiment in a line: fluorescence polarization; no saturation up to 100 uM; binding detectable from ~1 uM; Kd stated as at least 20 uM; FP: 20 mM Tris pH 8.0, 30 mM NaCl, 5 mM beta-mercaptoethanol, 0.8 nM fluorescein-ssDNA; temperature not stated; one-site model. Conditions: protein: recombinant; tags: N-terminal His6 removed by thrombin (tag-free); single strand. A general note: Fluorescence polarisation rises when a labelled molecule tumbles more slowly, as on binding a larger partner.

For orientation: Kd means the concentration at which binding is half-saturated. In series [1], “TTATAGGCATATAGGAGTAATTTTCTTGGGCTATGCAGTA [40-mer ssDNA]” had a Kd of 21.4 nM.

With TTATAGGCATATAGGAGTAATTTTCTTGGGCTATGCAGTA (ssDNA) [40-mer ssDNA], the equilibrium dissociation constant (Kd) in series [2] was > 20000 nM.
